# Assay: yeast display, Sf9 membrane polyspecificity reagent, FACS + sequencing; frameworks hold sequencing errors
# Summary of the method: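 Galactose-induced (36–48 hours) yeast carrying a synthetic nanobody display library were exposed to 10% biotinylated, detergent-solubilized Sf9 membrane reagent at 4 °C for 1 hour. FACS followed streptavidin microbead enrichment, using low and high (top ~1%) gates for expression (anti-HA) and reagent binding (streptavidin). Colony PCR, MiSeq 2 × 250 sequencing and CDR-length filtering followed. Labels for polyreactivity reflect the gate of origin.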
row,Sequence,polyreactivity (PSR sort gate)
1,QVQLVESGRGLVQAGGSLRLSCAASGITFGDNVMGWYRQAPGKERELVAAISRIGDDTYYADSVKGRFTISRDNAKNTVYLQMNSLKPEDTAVYYCATDYTQRDYYNYGYWGQGTQVTVSS,low polyreactivity
2,QVQLVESGRGLVQAGGSLRLSCAASGITFGYYAMGWSRQEPGKQSELVAAISFNGASTYYADSVKGRFTISRDNAKNTVYLQMNSMKPVDNAVYYCNRSTSYAQYFDVMDYWGQGTQVTVSS,low polyreactivity
3,QVQLVESGRGLVQAGGSLRLSCAASGNTLLKNAMGWYRQAPGKERELVAAISSSGGRTYYADSVKGRFTISRDNAKNTVYLQMNSLKQEDTAVYYCAARYPSGYYYWGQGTQVTVSS,high polyreactivity
4,QVQLVESGRGLVQAGGSLRLSCAASGRIFSSNAMVWYRQAPGKERELVAAISQGGGSTYYADSVKGRFTISRDNAKITVYLQMNSLIPEDTAVYYCAAETGYSGYDDSAYEYWGQGTQVTVSS,low polyreactivity
5,QVQLVESGRGLVQAGGSLRLSCAASGRILDSNAMGWDRQAPGKESELVAAITWRGGSTYYADSVKGRFTISRDNAKNTVYLQMNSLKPEDTAVYYCNARWSKTAHTRFGYWGQGTQVTVSS,low polyreactivity
6,QVQLVESGRGLVQAGGSLRLSCAASGSIFGFYAMGWYREAPGKESELVAAINSGSTNYADSLKGRFTISRDNAKNTVYLQMNSLKPEDTAVYYCNKDKGVQSYVSSDARYNYWGQGTQVTVSS,low polyreactivity
7,QVQLVESGRGLVQAGGSLRLSCAASGSIFGTNTMGWYRQAPGKERELVAAISWSGGSTYYADSVKGRFTISRDNAKNSVYLHMNSLKPEDTAVYYCNAVYPSVYPVSTRYYWGQGTQVTVSS,high polyreactivity
8,QVQLVESGRGLVQAGGSLRLSCAASGSIFNAYAMGWYRQAPGKERELVADISKRTSYADSVKGRFTISRDNAKNTVYLQMNSLKPEDTADYYCAKEVDEPDGYEYDYWGQGTQVTVSS,low polyreactivity
9,QVQLVESGRGLVQAGGSLRLSCAASGSIFYNNAMGWYRQAPGKERELVAAIRSTGTRTYYADSVKGRFTISRDNAKNTVYLQMNSLKPEDTAVYYCAVGDYGLWSYDCWGQGTQVTVSS,low polyreactivity
10,QVQLVESGRGLVQAGGSLRLSCAASGSILSINGMGWYRQAPGKERELVATIDGSDGSTFYADSVKGRFTISRDNAKNSVYLQMNSQKPEDTAVYYCAAENFWQTKEYDYWGQGTQVTVRS,low polyreactivity
11,QVQLVESGRGLVQAGGSLRLSCAASGSISGGNAMGWYRQAPRKARELVAANDYTDDSTYYADSVKGRFTISRDNAKNTVYLQMNSQKPEDTAVYYCAADAYRAQGDYWGQGTQVTVSS,low polyreactivity
12,QVQLVESGRGLVQAGGSLRLSCAASGSTFNSYAMGWYRQAPGKERELVAAIRWSGSSTYYADSVKGRFTISRDNAKNTVYLQMNSLKAEDTAVYYCSKGYSYGRPWDIYYYWGQGTQVTVSS,low polyreactivity
13,QVQLVESGRGLVQAGGSLRLSCAASGSTFYIYAMGWYRQAPGKERELVAAISTTDGTTYYADSVKGRFTISRDNAKNTVYLQMNSLKPEDTAVYYCAAEWFGSVQPAYDYWGQGTQVTVSS,high polyreactivity
14,QVQLVESGRGLVQAGGSLRLSCAASGYTFGYNAMGWYRQAPGKERELVATNSSGRTTTYADSVKGRFTISRDNAKNNVYLQMNSLKPEDNAGYYCATPVYRSSYEYDYWGQGTQVTVSS,low polyreactivity
15,QVQLVESGRGLVQAGGSLRLSCAPSGRIFKYYAKGWYRQAPGKERELVATITSGANTNYADSVKGRFTISRDNAKNTVYLQMNSLKPEDTAVYYCNADLDPRDYGFDYWGQGTQVTVSS,high polyreactivity
16,QVQLVESGRGLVQAGGSLRLSCAPSGSTFGKYAMGWFRQAPGKERELVAASSSGTSTNYADSVKGRFTISRDNAKNTVYLQMNSRKAEDTSVYYCAADSLKRYDDWGQGTQVTVSS,low polyreactivity
17,QVQLVESGRGLVQAGGSLRLSCAPSGYIFAANAMGWYRQAPGKERELVAAISASGGSTYYADSVKGRFTISRDNAKNTVYLQMNSLKPEDTAVYYCYVVSDSRLYYRYAYDYWGQGTQVTVSS,high polyreactivity
18,QVQLVESGRGLVQAGGSLRLSCDASGSILRENAMGWSRQAPGKERELVAVITRGGNTYYADSVKGRFTISRDNAKYTFYLQMNSMKREDTAVYYCAAKRRERYGQTYGYWGQGTQVTVSS,high polyreactivity
19,QVQLVESGRGLVQAGGSLRLSSAASGSTFHQYTMGWYRQAPGKERELVAGITYRGGSTYADSVKGLFTISRDNAKNTVYLQMNSLKPDDTAVYYCNATPDSVRWDYALSVVRYDYWGQGTQVTVSS,low polyreactivity
20,QVQLVESGRGLVQAGGSLRVSCAASGSILSINGMGWYRQAPGKERELVATIDGSDGSTFYADSVKGRFTISRDNAKNTVYLQMNSLKPEDTAVYYCAAENFWQTKEYDYWGQGTQVTVSS,low polyreactivity
21,QVQLVESGRGLVQAGGTLRLSCAPYGRTFYPIAMAWYRQAPGKDRELVAAISYSGGSTYYADSVKGRFTISRDNAKNTVYLQMNRLKPEDTAVYDCAAAFSRDSRDLWGQGTQVTVSS,low polyreactivity

row,Sequence,polyreactivity (PSR sort gate)
1,QVQLVESGRGLVQAGVSLRLSCAASGSTFGYYAMGWYRQAPGKERELVAAISYSGGSTYYADSVKGRFTISRDNAKNTVYLQMNSLKQEDTAVYYCAARFTRQMYYWGQGTQVNVSS,high polyreactivity
2,QVQLVESGRRLVQAGGSLRLSCAASGRTFGFYAMGWYRQAPGKERELVAGITWSGGSTYYADSVKGRFTISRDNAKNTVYLQMNSLKPEDTAVYYCAADVWWYHYLLFDSWGQGTQVTVSS,low polyreactivity
3,QVQLVESGSGLVQAGGILRLSCAASGFIFDAYAMGWYRQAPGKERELVAGISIGGRTNYADSVTGRFTISRDNALNTVYLQMTSLKPEDTAVYYCAARNYRYYYGSYYRGPITNYEYWGQGNQVTVSS,low polyreactivity
4,QVQLVESGVCIVEAGGSLRLSCAASGRSLKVYAMGWYRQAPGKERELVAAISQRGGSTYYADSVKGRFTISRDNAKNSVYLQMNSRKPEDTAVYYCAARYPYQSYLYRFDYWGQGTQVTVSS,high polyreactivity
5,QVQLVESGVCLVQAGGSLRLICAASGNIFYGYAMGWYRQAPGKESELVAAISTGGSTNYADSVKGRFTISRDNAKNTVYLQMNSLKPVDTAVYYCASDDPQQYGVRQLGYDSWGQVTQVTVSS,low polyreactivity
6,QVQLVESGVCLVQAGGSLRLSCAATGFTLSTNALGWYRQEPGKESELVAVISGGDSTSYADSVKGRFTISRDNAKNTVYLQMNSLKPEETAVYYCAKVYRRYTSGYDYWGQGTQVTVSS,high polyreactivity
7,QVQLVESGVCLVQAGGSLRLSCASSGRIFKIYMGWYRQAPGKERELVAAISSGGRTYYADSVKGRFTISRDNAKNTVYLQMNSLKPEDTAVYYCAAEGTYYFRYPGPEDYDYWGLGTQVTVSS,high polyreactivity
8,QVQLVESGVCLVQAGGSLRLSSAASGRTLDQNTMGRYRQAPGKERELVASITYSGGITYYADSVKGRFTISSDNAKNTVYLQMNSLKPEATAVYYCAAQEHGTYDNILGEPLDYWGQGTQVTVSS,low polyreactivity
9,QVQLVESGVCLVQAGRSLRLSCAASGRTFGYYAMGWYRQAPGKERELVAGITLSGGSTYYADSVKGRFTISRDNAKNTVYLQMNSLKPDDTAVYYCAARRRGRAGRDDYWGQGTQVTVSS,high polyreactivity
10,QVQLVESGVGIVQAGGSHRLSCAASGRICVRNAMGWYRQAPGKERQLVAAISWSGGTNYADSVKGRFTISRDNAKNTVYLQMNSLKPEDTAVYYCAALSVWSYYTYYYWGQGTQVTVSS,high polyreactivity
11,QVQLVESGVGIVQAGGSLRLSCAASGITFWRYAMRWYRQARGKERELVAAINSGGGTKYADSVQGRFTISRDNAKNTDYLQMNSLKPEDTAVYYCAAVSRYGWYDYCGQGTQVTVSS,high polyreactivity
12,QVQLVESGVGLDKAGGSLRLISAASGRILWYNAMGLYRQAPGKEREFVARISISTASTYYADSVKGRFTISRDNAKNTVFLQMNSLKPEDTAVYYCAGKPWRTVPYYYWGQGTQVSVSS,high polyreactivity
13,QVQLVESGVGLDQAGGSLRLSCAASGFTFYSNAMGWYRQAPGKERELVAAITGRGGRTYYADSVKGRFTISRDNAKNTVYLLMNSLKPEDTAVYYCAAVYHVSTWGGRYYFRQGYDYWGQGTQVTVSS,high polyreactivity
14,QVQLVESGVGLDQAGGSLRLSCAASGSTFASYAMGWYRQAPGKERELVAAITNGGSTNYADSVKGRFTISRDNAKNTVYLLMNSLKPEDTAVYYCAAYDGFPRRYDYWGQGTQVTVSS,low polyreactivity
15,QVQLVESGVGLLQAGGSLRLSCAASGFIFSFYAMGWYRQAPGKERELVAGISQSGGRTYYADSVKGRFTISRDNAKNNVFLQMNSLKPEDTAVYYCAAQWYYSLYVSGDYWGQGTQVTVSS,high polyreactivity
16,QVQLVESGVGLVHAGGSLRLSCAASGITFDHYTMGWYRQAPGKEREFVAAITGSGVRTYYADSVKVRFTISRDNAKNTVYLQMNSLKPEVTAVYYCAAVWRYTGKYWGQGTQVTISS,high polyreactivity
17,QVQLVESGVGLVHAGGSLRLSCAASGSTFYANTMGWYIQAPGKERELVAAISQSGGSTYYADSVKGRFSISRDNAKNTVYLQMNSLKPEDTAVYYCAARRLPRKERKLYYWGQGTQVTVSS,high polyreactivity
18,QVQLVESGVGLVQAGGILRLSCAAYGTFGSYAMGWYRQAPGKERELVASISGTGGDTYYADSVKGRFTISRDNAKNTVYLQMNSLKPEDTAVYDCAARWSRYWYLGSWLYDYWGQGTQVSVSS,high polyreactivity
19,QVQLVESGVGLVQAGGSHRLSCAASGSILAGNVMGWYRQAPGKERELVAAITRSGTSTYYADSVKGRFTISRDNAKNTVYLQMNSLKPEDTAVYYCNSVRRVGFRGRYTDGYWGQGTQVTVSS,high polyreactivity
20,QVQLVESGVGLVQAGGSLRLICAASGSTFGVYAMGWYRQAPGKERELVARITSGGSTYYADSVKGRFTISRDNAKNTVYLQMNSLKPEDTAVYYCAAVYRRTRSWKFDYWGQGTQVTVSS,high polyreactivity

# — the nanobody polyreactivity screen of Harvey et al. (2022)
